# In the supplement of paper PMC9112550, “Optimization of the antimicrobial peptide Bac7 by deep mutational scanning” (BMC Biology, 2022):
# Test system: Escherichia coli TOP10
# Test: shrunken log2 fold change of peptide-encoding DNA abundance (4.5 h post-induction vs induction); higher = less antimicrobial activity (less host growth inhibition)
# Conditions: time post-induction: 4.5 h; library: site-saturation at positions 5, 18, 19, 20
# 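Note: peptides expressed intracellularly from a pBAD plasmid library in pooled LB shake-flask culture, induced with 0.3% L-arabinose, DNA abundance read by NGS, three biological replicates, DESeq2 with apeglm shrinkage.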
row,Sequence,shrunken log2 fold change
1,RRIRFRPPRLPRPRPRPKSTPRP,-0.3
2,RRIRFRPPRLPRPRPRPKTFPRP,-0.18
3,RRIRFRPPRLPRPRPRPKTPPRP,0.207
4,RRIRFRPPRLPRPRPRPKWMPRP,-0.235
5,RRIRFRPPRLPRPRPRPLADPRP,-0.0773
6,RRIRFRPPRLPRPRPRPLAEPRP,-0.0472
7,RRIRFRPPRLPRPRPRPLAGPRP,-0.104
8,RRIRFRPPRLPRPRPRPLCGPRP,-0.154
9,RRIRFRPPRLPRPRPRPLCIPRP,-0.571
10,RRIRFRPPRLPRPRPRPLCWPRP,0.135
11,RRIRFRPPRLPRPRPRPLDIPRP,-0.267
12,RRIRFRPPRLPRPRPRPLDTPRP,0.0445
13,RRIRFRPPRLPRPRPRPLFCPRP,-0.462
14,RRIRFRPPRLPRPRPRPLFDPRP,-0.578
15,RRIRFRPPRLPRPRPRPLFTPRP,-0.239
16,RRIRFRPPRLPRPRPRPLGPPRP,0.148
17,RRIRFRPPRLPRPRPRPLHVPRP,-0.208
18,RRIRFRPPRLPRPRPRPLIQPRP,-0.289
19,RRIRFRPPRLPRPRPRPLKAPRP,0.693
20,RRIRFRPPRLPRPRPRPLLFPRP,-0.315
21,RRIRFRPPRLPRPRPRPLLGPRP,0.123
22,RRIRFRPPRLPRPRPRPLLYPRP,-1.01
23,RRIRFRPPRLPRPRPRPLMQPRP,-0.0117
24,RRIRFRPPRLPRPRPRPLNGPRP,0.073
25,RRIRFRPPRLPRPRPRPLNQPRP,-0.282

row,Sequence,shrunken log2 fold change
1,RRIRFRPPRLPRPRPRPLPEPRP,0.224
2,RRIRFRPPRLPRPRPRPLPKPRP,0.55
3,RRIRFRPPRLPRPRPRPLQSPRP,0.11
4,RRIRFRPPRLPRPRPRPLRYPRP,-0.192
5,RRIRFRPPRLPRPRPRPLSGPRP,-0.233
6,RRIRFRPPRLPRPRPRPLTTPRP,0.0259
7,RRIRFRPPRLPRPRPRPLVWPRP,0.0758
8,RRIRFRPPRLPRPRPRPLWLPRP,-0.0557
9,RRIRFRPPRLPRPRPRPLYQPRP,-0.374
10,RRIRFRPPRLPRPRPRPMARPRP,-0.0235
11,RRIRFRPPRLPRPRPRPMAYPRP,-0.0672
12,RRIRFRPPRLPRPRPRPMCDPRP,0.226
13,RRIRFRPPRLPRPRPRPMECPRP,-0.0638
14,RRIRFRPPRLPRPRPRPMEQPRP,-0.00146
15,RRIRFRPPRLPRPRPRPMFRPRP,0.0591
16,RRIRFRPPRLPRPRPRPMFSPRP,-0.0614
17,RRIRFRPPRLPRPRPRPMFYPRP,-1.51
18,RRIRFRPPRLPRPRPRPMGHPRP,-0.184
19,RRIRFRPPRLPRPRPRPMHMPRP,-0.011
20,RRIRFRPPRLPRPRPRPMHWPRP,0.325
21,RRIRFRPPRLPRPRPRPMIDPRP,-0.209
22,RRIRFRPPRLPRPRPRPMINPRP,-0.208
23,RRIRFRPPRLPRPRPRPMKLPRP,-0.0666
24,RRIRFRPPRLPRPRPRPMLFPRP,-0.0947
25,RRIRFRPPRLPRPRPRPMLGPRP,-0.055

row,Sequence,shrunken log2 fold change
1,RRIRFRPPRLPRPRPRPMLWPRP,0.165
2,RRIRFRPPRLPRPRPRPMMDPRP,0.0995
3,RRIRFRPPRLPRPRPRPMMSPRP,-0.0228
4,RRIRFRPPRLPRPRPRPMNRPRP,-0.0364
5,RRIRFRPPRLPRPRPRPMPVPRP,-0.0124
6,RRIRFRPPRLPRPRPRPMREPRP,1.08
7,RRIRFRPPRLPRPRPRPMSYPRP,-0.138
8,RRIRFRPPRLPRPRPRPMTTPRP,0.000405
9,RRIRFRPPRLPRPRPRPMWNPRP,-0.363
10,RRIRFRPPRLPRPRPRPMYRPRP,-0.29
11,RRIRFRPPRLPRPRPRPNALPRP,-0.347
12,RRIRFRPPRLPRPRPRPNAVPRP,-0.0327
13,RRIRFRPPRLPRPRPRPNCAPRP,0.154
14,RRIRFRPPRLPRPRPRPNCQPRP,-0.508
15,RRIRFRPPRLPRPRPRPNEFPRP,-0.0262
16,RRIRFRPPRLPRPRPRPNGHPRP,-0.0454
17,RRIRFRPPRLPRPRPRPNGVPRP,-0.0018
18,RRIRFRPPRLPRPRPRPNHDPRP,-0.332
19,RRIRFRPPRLPRPRPRPNHFPRP,-0.0292
20,RRIRFRPPRLPRPRPRPNHHPRP,-1.02
21,RRIRFRPPRLPRPRPRPNICPRP,-0.252
22,RRIRFRPPRLPRPRPRPNKCPRP,-0.273
23,RRIRFRPPRLPRPRPRPNKNPRP,-0.384
24,RRIRFRPPRLPRPRPRPNLGPRP,-0.0272
25,RRIRFRPPRLPRPRPRPNLMPRP,-0.144
